± gives the standard deviation of the averaged measurements.
Test system: Saccharomyces cerevisiae
Test: protein stability index of tFT-peptide fusion (C-terminal peptide) (PSI (0-1 scale)); higher = more stable (slower turnover)
Details: temperature: 30 C
Description: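 MPS profiling in S. cerevisiae of the yeast C-terminome library: the last 12 aa of each annotated ORF are fused to the C-terminus of a sfGFP-mCherry timer, after a GGGS linker. Cells are FACS-sorted into 8 mCherry/sfGFP bins and deep-sequenced. PSI runs from 0 (unstable) to 1 (stable); wild type and das1Δ backgrounds, two technical replicates each.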

[1] = genetic background: das1 deletion

Row | Sequence | protein stability index [1] | protein stability index (genetic background: wild type)
1 | EWSFASSGYKDD [PPN1 C-terminal 12 aa] | 0.7115 ± 0.0032 | 0.794 ± 0.041
2 | FADKIKPTKVAE [MCK1 C-terminal 12 aa] | 0.693 ± 0.015 | 0.691 ± 0.023
3 | FCAAYQGKKNNK [SLN1 C-terminal 12 aa] | 0.696 ± 0.022 | 0.659 ± 0.039
4 | FDIKKANSATLA [TMA46 C-terminal 12 aa] | 0.6584 ± 0.0037 | 0.634 ± 0.019
5 | FELVQPKGRRKH [TSR2 C-terminal 12 aa] | 0.711 ± 0.016 | 0.686 ± 0.058
6 | FFLRSAAVYQPF [YPR197C C-terminal 12 aa] | 0.6949 ± 0.003 | 0.6815 ± 0.0047
7 | FFNISVSTKISF [YER175W-A C-terminal 12 aa] | 0.6797 ± 0.00033 | 0.659 ± 0.04
8 | FFSRVKSFKDPG [HRT3 C-terminal 12 aa] | 0.7153 ± 0.0048 | 0.688 ± 0.022
9 | FHPLFYCSALVF [YIL142C-A C-terminal 12 aa] | 0.256 ± 0.016 | 0.277 ± 0.015
10 | FIEMSLASSFAG [MBR1 C-terminal 12 aa] | 0.713 ± 0.009 | 0.704 ± 0.028
11 | FILELKNICKCT [MOH1 C-terminal 12 aa] | 0.703 ± 0.026 | 0.525 ± 0.046
12 | FINCSSKYNGLQ [YBR224W C-terminal 12 aa] | 0.687 ± 0.0088 | 0.703 ± 0.019
13 | FKMCPFFISWFL [YBL073W C-terminal 12 aa] | 0.6013 ± 0.0016 | 0.563 ± 0.032
14 | FLDKNKKEQSDS [ECM9 C-terminal 12 aa] | 0.678 ± 0.029 | 0.771 ± 0.08
15 | FLLTASRGIAQF [YBR116C C-terminal 12 aa] | 0.6752 ± 0.0048 | 0.74 ± 0.088
16 | FPCAGSAMGSLT [YMR103C C-terminal 12 aa] | 0.703 ± 0.011 | 0.684 ± 0.01
17 | FPQLNGLLRLQH [YPR014C C-terminal 12 aa] | 0.698 ± 0.015 | 0.681 ± 0.028
18 | FQPLLKKNQVGY [THI3 C-terminal 12 aa] | 0.704 ± 0.028 | 0.693 ± 0.012
19 | FSLLSFISYFLL [YPS6 C-terminal 12 aa] | 0.665 ± 0.053 | 0.379 ± 0.011
20 | FSMLANRITIGL [YJL175W C-terminal 12 aa] | 0.657 ± 0.016 | 0.64 ± 0.014
21 | FSSFKFLDTSYL [CKI1 C-terminal 12 aa] | 0.748 ± 0.0096 | 0.697 ± 0.048

Row | Sequence | protein stability index [1] | protein stability index (genetic background: wild type)
22 | FTPSYIPEPVLL [YOR161W-B C-terminal 12 aa] | 0.671 ± 0.012 | 0.654 ± 0.013
23 | FVAEAYLDEFVY [ARC19 C-terminal 12 aa] | 0.71 ± 0.03 | 0.662 ± 0.02
24 | FVKTIADTLSFS [PRR1 C-terminal 12 aa] | 0.6997 ± 0.0036 | 0.7061 ± 0.0011
25 | FVLPTWAAKELN [SPE3 C-terminal 12 aa] | 0.7195 ± 0.0063 | 0.69 ± 0.03
26 | FYVCYQLYHLVF [DPM1 C-terminal 12 aa] | 0.355 ± 0.012 | 0.347 ± 0.022
27 | GALREVIKLQKQ [SLX9 C-terminal 12 aa] | 0.704 ± 0.035 | 0.656 ± 0.0067
28 | GALVGYTIGAYI [GPI11 C-terminal 12 aa] | 0.666 ± 0.015 | 0.673 ± 0.055
29 | GAPANKRPRRGL [SMD1 C-terminal 12 aa] | 0.737 ± 0.026 | 0.7365 ± 0.0044
30 | GDPIDLKEKKLN [RER2 C-terminal 12 aa] | 0.705 ± 0.031 | 0.196 ± 0.032
31 | GDTLYEEFGISK [ARO8 C-terminal 12 aa] | 0.709 ± 0.0035 | 0.712 ± 0.046
32 | GESSINSSTRHA [CTK2 C-terminal 12 aa] | 0.683 ± 0.015 | 0.6853 ± 0.0058
33 | GEYLRDEDTLFT [NIP7 C-terminal 12 aa] | 0.727 ± 0.011 | 0.725 ± 0.013
34 | GFRPAGATRFYS [YHR086W-A C-terminal 12 aa] | 0.6965 ± 0.0029 | 0.691 ± 0.016
35 | GGFFKKLAQLLK [MDG1 C-terminal 12 aa] | 0.704 ± 0.015 | 0.719 ± 0.07
36 | GGLHFHGESFAL [FRE8 C-terminal 12 aa] | 0.699 ± 0.0096 | 0.712 ± 0.036
37 | GIGFTNTSKKIA [RCL1 C-terminal 12 aa] | 0.708 ± 0.027 | 0.5373 ± 0.0012
38 | GINLNISYSSGK [ULI1 C-terminal 12 aa] | 0.706 ± 0.012 | 0.681 ± 0.0044
39 | GIPNFKLKVTQI [GAB1 C-terminal 12 aa] | 0.6896 ± 0.0036 | 0.706 ± 0.041
40 | GKDRPSRFNSKK [TEX1 C-terminal 12 aa] | 0.693 ± 0.011 | 0.667 ± 0.038
41 | GKEVRKLRPENQ [ILV5 C-terminal 12 aa] | 0.691 ± 0.014 | 0.654 ± 0.024
42 | GKGKKKMVVLEW [ETR1 C-terminal 12 aa] | 0.692 ± 0.026 | 0.712 ± 0.018

Row | Sequence | protein stability index [1] | protein stability index (genetic background: wild type)
43 | GKRRMNPGPSVQ [RPS30A C-terminal 12 aa] | 0.696 ± 0.0085 | 0.6758 ± 0.0052
44 | GKSHPFHSSDRY [YJL211C C-terminal 12 aa] | 0.6884 ± 0.0033 | 0.699 ± 0.023
45 | GLGDFGDRYYCV [FUR1 C-terminal 12 aa] | 0.7105 ± 0.0059 | 0.697 ± 0.007
46 | GLLRKGLVKRDI [YHR193C-A C-terminal 12 aa] | 0.6883 ± 0.0029 | 0.677 ± 0.033
47 | GLVGQHQGGGSM [RTC5 C-terminal 12 aa] | 0.68 ± 0.0094 | 0.6633 ± 0.0038
48 | GNISLLYSQGRL [RSC6 C-terminal 12 aa] | 0.723 ± 0.013 | 0.714 ± 0.053
49 | GNLSLDWLNLNL [GAT1 C-terminal 12 aa] | 0.735 ± 0.01 | 0.7689 ± 0.0048
50 | GNNKKKRSVKRE [PBN1 C-terminal 12 aa] | 0.688 ± 0.013 | 0.717 ± 0.036
51 | GPEPPRYDEISS [CSR2 C-terminal 12 aa] | 0.705 ± 0.058 | 0.635 ± 0.025
52 | GPSIIMTLYLTL [ARE1 C-terminal 12 aa] | 0.496 ± 0.021 | 0.5045 ± 0.0024
53 | GTFPRNERYYHK [PHA2 C-terminal 12 aa] | 0.71 ± 0.0099 | 0.78 ± 0.021
54 | GTLVLGTYLLAQ [SHH3 C-terminal 12 aa] | 0.612 ± 0.027 | 0.639 ± 0.037
55 | GVGRIITQPQRY [HUA1 C-terminal 12 aa] | 0.7038 ± 0.0018 | 0.701 ± 0.043
56 | GWYVGRYYRITR [IMD1 C-terminal 12 aa] | 0.714 ± 0.017 | 0.6944 ± 0.0055
57 | GYETAIHYLRMY [TPC1 C-terminal 12 aa] | 0.701 ± 0.013 | 0.3927 ± 0.0037
58 | HAYVIEKLPDVF [FCF1 C-terminal 12 aa] | 0.719 ± 0.0048 | 0.698 ± 0.016
59 | HCLSLCTIQKMI [YOR231C-A C-terminal 12 aa] | 0.7075 ± 0.0048 | 0.159 ± 0.01
60 | HELESINSGGAW [YMR31 C-terminal 12 aa] | 0.702 ± 0.0072 | 0.689 ± 0.0016
61 | HIDIPDFSKWDV [SUL1 C-terminal 12 aa] | 0.7412 ± 0.0047 | 0.718 ± 0.016
62 | HKGSHFYIQLPI [YAL034C-B C-terminal 12 aa] | 0.7079 ± 0.0061 | 0.677 ± 0.0077
63 | HKGSTLDIMSID [QNS1 C-terminal 12 aa] | 0.72 ± 0.0096 | 0.667 ± 0.025

Row | Sequence | protein stability index [1] | protein stability index (genetic background: wild type)
64 | HKSLKLAKKDKK [AGE1 C-terminal 12 aa] | 0.6837 ± 0.0037 | 0.738 ± 0.13
65 | HKVIAVGRIACQ [SKI7 C-terminal 12 aa] | 0.5897 ± 0.0016 | 0.611 ± 0.016
66 | HPRLCVFSCMMI [YJR128W C-terminal 12 aa] | 0.6901 ± 0.0059 | 0.67 ± 0.035
67 | HQVERKAVDIVL [YPR096C C-terminal 12 aa] | 0.691 ± 0.016 | 0.712 ± 0.09
68 | HRDIVSAGSLYL [MTR4 C-terminal 12 aa] | 0.723 ± 0.034 | 0.7 ± 0.036
69 | HTSSKEIDLLSF [ENT3 C-terminal 12 aa] | 0.721 ± 0.026 | 0.7104 ± 0.0067
70 | IAAFVVAVLFAF [PRY3 C-terminal 12 aa] | 0.213 ± 0.012 | 0.205 ± 0.012
71 | ICRVAIWSAERI [CAT5 C-terminal 12 aa] | 0.693 ± 0.015 | 0.658 ± 0.034
72 | IDDINNDKWLVI [PSK1 C-terminal 12 aa] | 0.725 ± 0.001 | 0.688 ± 0.041
73 | IDNPEACEMCSG [RNR1 C-terminal 12 aa] | 0.702 ± 0.022 | 0.694 ± 0.027
74 | IEKADIVQQAIR [SLP1 C-terminal 12 aa] | 0.691 ± 0.008 | 0.66 ± 0.033
75 | IFKKIRLLLHVN [MCP1 C-terminal 12 aa] | 0.615 ± 0.013 | 0.2 ± 0.03
76 | IIFGHDNLWTVR [ALG7 C-terminal 12 aa] | 0.742 ± 0.022 | 0.767 ± 0.041
77 | IIQSYINLLEEN [NKP2 C-terminal 12 aa] | 0.708 ± 0.017 | 0.756 ± 0.059
78 | IKAAIDRVDHSL [YKR018C C-terminal 12 aa] | 0.6778 ± 0.0045 | 0.692 ± 0.041
79 | IKLNKKKVKLST [HHO1 C-terminal 12 aa] | 0.664 ± 0.0086 | 0.6099 ± 0.0033
80 | IKQRELNAADKC [MAL11 C-terminal 12 aa] | 0.696 ± 0.0096 | 0.6741 ± 0.0048
81 | IKYNWERCFNGE [YDR521W C-terminal 12 aa] | 0.71 ± 0.014 | 0.697 ± 0.04
82 | ILLITGFKSSFT [SRL4 C-terminal 12 aa] | 0.72 ± 0.018 | 0.737 ± 0.038

— the supplement of paper PMC10724198
